Test results taken from patent US20200199647A1 (published 2020).
Like-named read-outs stand apart in the source and are kept apart here.

Key:
[1] = molecular target: T1, PP1c (human PP1cα amino acids 7-330, N-terminal Thio6/His6 tag) (human, UniProt P62136 7-330); assay: thermophoresis
[2] = molecular target: T1, PP1c (human PP1cα amino acids 7-330, …); assay: thermophoresis; remark: listed apart in the source

T1 sequence (P62136 other isoform, or with tags, fused parts or gaps): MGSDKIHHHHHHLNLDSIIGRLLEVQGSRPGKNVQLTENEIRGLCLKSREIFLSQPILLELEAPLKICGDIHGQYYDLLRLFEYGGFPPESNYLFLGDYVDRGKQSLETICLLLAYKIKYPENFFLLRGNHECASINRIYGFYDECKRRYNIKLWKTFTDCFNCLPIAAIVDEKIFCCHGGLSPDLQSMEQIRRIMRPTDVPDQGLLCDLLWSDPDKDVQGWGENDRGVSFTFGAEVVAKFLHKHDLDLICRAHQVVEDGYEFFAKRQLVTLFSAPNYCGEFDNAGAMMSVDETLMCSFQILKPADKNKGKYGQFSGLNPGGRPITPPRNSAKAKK

B1: R15B (human PPP1R15B amino acids 340-698, N-terminal MBP-tag, C-terminal His6-tag) (other)
chain: RDNPTQFVPAAGDIPGNTQESTEEKIELLTTEVPLALEEESPSEGCPSSEIPMEKEPGEGRISVVDYSYLEGDLPISARPACSNKLIDYILGGASSDLETSSDPEGEDWDEEAEDDGFDSDSSLSDSDLEQDPEGLHLWNSFCSVDPYNPQNFTATIQTAARIVPEEPSDSEKDLSGKSDLENSSQSGSLPETPEHSSGEEDDWESSADEAESLKLWNSFCNSDDPYNPLNFKAPFQTSGENEKGCRDSKTPSESIVAISECHTLLSCKVQLLGSQESECPDSVQRDVLSGGRHTHVKRKKVTFLEEVTEYYISGDEDRKGPWEEFARDGCRFQKRIQETEDAIGYCLTFEHRERMFNRHHHHHH
Kd [1]: 900 nM

B2: R15B^C (human PPP1R15B amino acids 636-698, N-terminal MBP-tag, C-terminal His6-tag) (other)
chain: VKRKKVTFLEEVTEYYISGDEDRKGPWEEFARDGCRFQKRIQETEDAIGYCLTFEHRERMFNRHHHHHH
Kd [2]: 960 nM
